Patent publication US20190023748A1 (NAVIGEN, published 2019)
Bridge positions count the residues as written; N and C are the ends. Square brackets hold non-standard residues; d marks the D form. Primed or numbered codes have the meaning given here. PEG4′ = not defined here

Assays:
Assay in all cases: cell-based or functional assay
[1] = target: HIV-1 gp41 of strain JRFL (HIV-1 strain JRFL)
[2] = target: HIV-1 gp41 of isolate CAM0002 (AG) (HIV-1 isolate CAM0002)
[3] = target: HIV-1 gp41 of isolate NP1251 (AE) (HIV-1 isolate NP1251)
[4] = target: HIV-1 gp41 of isolate TZBD9/11 (clade C) (HIV-1 isolate TZBD9/11)
[5] = target: HIV-1 gp41 of isolate KSM4030 (clade A) (HIV-1 isolate KSM4030)
[6] = target: HIV-1 gp41 of isolate 92UG029 (clade A) (HIV-1 isolate 92UG029)
[7] = target: HIV-1 gp41 of isolate A03349M1 (clade D) (HIV-1 isolate A03349M1)
[8] = target: HIV-1 gp41 of isolate TZA68 (clade C) (HIV-1 isolate TZA68)
[9] = target: HIV-1 gp41 of isolate CAM1970LE (AG) (HIV-1 isolate CAM1970LE)
[10] = target: HIV-1 gp41 of isolate CM240/GS022 (AE) (HIV-1 isolate CM240/GS022)
[11] = target: HIV-1 gp41 of isolate KNH1135 (clade A) (HIV-1 isolate KNH1135)
[12] = target: HIV-1 gp41 of isolate CAM0013 (AG) (HIV-1 isolate CAM0013)
[13] = target: HIV-1 gp41 of isolate CM235/GS020 (AE) (HIV-1 isolate CM235/GS020)
[14] = target: HIV-1 gp41 of isolate NI1046 (AE) (HIV-1 isolate NI1046)
[15] = target: HIV-1 gp41 of isolate 873 (clade B) (HIV-1 isolate 873)
[16] = target: HIV-1 gp41 of isolate 93UG065 (clade D) (HIV-1 isolate 93UG065)
[17] = target: HIV-1 gp41 of isolate PBL286 (clade C) (HIV-1 isolate PBL286)
[18] = target: HIV-1 gp41 of isolate 3343IN (clade B) (HIV-1 isolate 3343IN)
[19] = target: HIV-1 gp41 of isolate BK132/GS009 (clade B) (HIV-1 isolate BK132/GS009)
[20] = target: HIV-1 gp41 of isolate NKU3006 (clade D) (HIV-1 isolate NKU3006)
[21] = target: HIV-1 gp41 of isolate KNH1144 (clade A) (HIV-1 isolate KNH1144)
[22] = target: HIV-1 gp41 of isolate NI1052 (AE) (HIV-1 isolate NI1052)
[23] = target: HIV-1 gp41 of isolate 56313 (clade C) (HIV-1 isolate 56313)
[24] = target: HIV-1 gp41 of isolate DJ263/GS003 (AG) (HIV-1 isolate DJ263/GS003)
[25] = target: HIV-1 gp41 of isolate MN/H9 (clade B) (HIV-1 isolate MN/H9)
[26] = target: HIV-1 gp41 of isolate KER2018 (clade A) (HIV-1 isolate KER2018)
[27] = target: HIV-1 gp41 of isolate Ba-L (clade B) (HIV-1 isolate Ba-L)
[28] = target: HIV-1 gp41 of isolate CM244 (AE) (HIV-1 isolate CM244)
[29] = target: HIV-1 gp41 of isolate NP1538 (clade B) (HIV-1 isolate NP1538)
[30] = target: HIV-1 gp41 of isolate 0503M02138 (AE) (HIV-1 isolate 0503M02138)

B1: CPT31 (cholesterol-PIE12-2-trimer with PEG32 fourth-arm spacer) (peptide)
peptide: Ac-[dH][dP][dC][dD][dY][dP][dE][dW][dQ][dW][dL][dC][dE][dL]G[PEG4′]K-NH2
modifications: disulfide 3-12 (inferred); not fully specified (some residues); numbers in words are those of the source; also: PIE12-2 trimer on scaffold, fourth arm PEG28 + PEG4 with cholesteryl carbamate
- Antiviral potency, IC50, JRFL pseudovirion entry assay [1]: 0.015 nM
- 1 nM inhibition [2]: 95.6%
- 10 nM inhibition [2]: 99.7%
- 1 nM inhibition [3]: 97%
- 10 nM inhibition [3]: 98.4%
- 1 nM inhibition [4]: 84.7%
- 10 nM inhibition [4]: 85.4%
- 1 nM inhibition [5]: 93.6%
- 10 nM inhibition [5]: 95.6%
- 1 nM inhibition [6]: 95.2%
- 10 nM inhibition [6]: 98.2%
- 1 nM inhibition [7]: 93.6%
- 10 nM inhibition [7]: 99.5%
- 1 nM inhibition [8]: 97.7%
- 10 nM inhibition [8]: 99.7%
- 1 nM inhibition [9]: 97.3%
- 10 nM inhibition [9]: 98.5%
- 1 nM inhibition [10]: 83.8%
- 10 nM inhibition [10]: 95%
- 1 nM inhibition [11]: 80.6%
- 10 nM inhibition [11]: 83.4%
- 1 nM inhibition [12]: 98.4%
- 10 nM inhibition [12]: 99.7%
- 1 nM inhibition [13]: 81.8%
- 10 nM inhibition [13]: 98.7%
- 1 nM inhibition [14]: 99.1%
- 10 nM inhibition [14]: 99.7%
- 1 nM inhibition [15]: 93.6%
- 10 nM inhibition [15]: 98.7%
- 1 nM inhibition [16]: 93.7%
- 10 nM inhibition [16]: 94.4%
- 1 nM inhibition [17]: 95.8%
- 10 nM inhibition [17]: 99%
- 1 nM inhibition [18]: 97.6%
- 10 nM inhibition [18]: 99.1%
- 1 nM inhibition [19]: 99.7%
- 10 nM inhibition [19]: 99.8%
- 1 nM inhibition [20]: 97.2%
- 10 nM inhibition [20]: 99.8%
- 1 nM inhibition [21]: 78.2%
- 10 nM inhibition [21]: 80.6%
- 1 nM inhibition [22]: 98%
- 10 nM inhibition [22]: 99.7%
- 1 nM inhibition [23]: 97.9%
- 10 nM inhibition [23]: 99.3%
- 1 nM inhibition [24]: 96.7%
- 10 nM inhibition [24]: 99.2%
- 1 nM inhibition [25]: 99.3%
- 10 nM inhibition [25]: 100%
- 1 nM inhibition [26]: 94.8%
- 10 nM inhibition [26]: 97.5%
- 1 nM inhibition [27]: 96.9%
- 10 nM inhibition [27]: 99.8%
- 1 nM inhibition [28]: 95.4%
- 10 nM inhibition [28]: 99.5%
- 1 nM inhibition [29]: 95%
- 10 nM inhibition [29]: 99.4%
- 1 nM inhibition [30]: 95.2%
- 10 nM inhibition [30]: 98%
